# B1: Mothers against decapentaplegic homolog 4 (Homo sapiens), Q13485 (parent)
# chain: MDNMSITNTPTSNDACLSIVHSLMCHRQGGESETFAKRAIESLVKKLKEKKDELDSLITAITTNGAHPSKCVTIQRTLDGRLQVAGRKGFPHVIYARLWRWPDLHKNELKHVKYCQYAFDLKCDSVCVNPYHYERVVSPGIDLSGLTLQSNAPSSMMVKDEYVHDFEGQPSLSTEGHSIQTIQHPPSNRASTETYSTPALLAPSESNATSTANFPNIPVASTSQPASILGGSHSEGLLQIASGPQPGQQQNGFTGQPATYHHNSTTTWTGSRTAPYTPNLPHHQNGHLQHHPPMPPHPGHYWPVHNELAFQPPISNHPAPEYWCSIAYFEMDVQVGETFKVPSSCPIVTVDGYVDPSGGDRFCLGQLSNVHRTEAIERARLHIGKGVQLECKGEGDVWVRCLSDHAVFVQSYYLDREAGRAPGDAVHKIYPSAYIKVFDLRQCHRQMQQQAATAQAAAAAQAAAVAGNIPGPGSVGGIAPAISLSAAAGIGVDDLRRLCILRMSFVKGWGPDYPRQSIKETPCWIEIHLHRALQLLDEVLHTMPIADPQPLD
# B2: Cyclin-dependent kinase 4 (Homo sapiens), P11802 (parent)
# chain: MATSRYEPVAEIGVGAYGTVYKARDPHSGHFVALKSVRVPNGGGGGGGLPISTVREVALLRRLEAFEHPNVVRLMDVCATSRTDREIKVTLVFEHVDQDLRTYLDKAPPPGLPAETIKDLMRQFLRGLDFLHANCIVHRDLKPENILVTSGGTVKLADFGLARIYSYQMALTPVVVTLWYRAPEVLLQSTYATPVDMWSVGCIFAEMFRRKPLFCGNSEADQLGKIFDLIGLPPEDDWPRDVSLPRGAFPPRGPRPVQSVVPEMEESGAQLLLEMLTFNPHKRISAFRALQHSYLHKDEGNPE
# Variants of: B1
# Conditions: with smad3_human SMAD3, P84022
# Sequence of smad3_human SMAD3, P84022 (P84022 whole entry, looked up): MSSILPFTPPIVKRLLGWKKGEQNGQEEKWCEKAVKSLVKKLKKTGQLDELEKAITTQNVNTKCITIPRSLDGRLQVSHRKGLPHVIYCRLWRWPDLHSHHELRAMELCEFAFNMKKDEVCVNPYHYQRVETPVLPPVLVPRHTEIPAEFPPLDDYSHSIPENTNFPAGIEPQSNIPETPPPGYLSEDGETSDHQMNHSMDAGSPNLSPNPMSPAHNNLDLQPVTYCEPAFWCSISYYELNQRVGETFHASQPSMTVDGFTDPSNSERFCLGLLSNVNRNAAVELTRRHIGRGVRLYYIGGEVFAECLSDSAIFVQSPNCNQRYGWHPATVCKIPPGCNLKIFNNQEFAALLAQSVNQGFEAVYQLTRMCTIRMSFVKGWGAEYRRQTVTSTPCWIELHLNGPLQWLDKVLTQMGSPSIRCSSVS
row,Variant,effect of a mutation on the interaction
1,C324R,disrupting interaction strength
2,E330K,disrupting interaction strength

# Continued, values first:
row,effect of a mutation on the interaction,Variant
1,disrupting interaction strength,V350D
2,disrupting interaction strength,G352R

# Variants of: B1
# Conditions: with smad3_human SMAD3, P84022
# Remark: another data set of the same source
row,effect of a mutation on the interaction,Variant
1,disrupting interaction strength,R361C

# Variants of: B1
# Conditions: with smad9_human SMAD9, O15198
# Sequence of smad9_human SMAD9, O15198 (O15198 whole entry): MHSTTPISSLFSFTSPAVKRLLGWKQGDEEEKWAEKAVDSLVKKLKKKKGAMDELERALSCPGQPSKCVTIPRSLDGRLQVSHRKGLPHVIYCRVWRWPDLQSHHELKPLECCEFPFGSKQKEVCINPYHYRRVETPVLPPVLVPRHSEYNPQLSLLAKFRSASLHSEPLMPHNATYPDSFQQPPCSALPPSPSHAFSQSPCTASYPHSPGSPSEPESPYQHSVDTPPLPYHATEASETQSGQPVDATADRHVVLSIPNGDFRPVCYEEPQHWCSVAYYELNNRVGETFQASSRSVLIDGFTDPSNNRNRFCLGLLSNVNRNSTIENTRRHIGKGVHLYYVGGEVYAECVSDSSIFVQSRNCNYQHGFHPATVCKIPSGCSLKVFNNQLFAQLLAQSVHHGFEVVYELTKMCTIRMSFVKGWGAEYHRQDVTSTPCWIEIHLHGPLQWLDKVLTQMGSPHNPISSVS
row,effect of a mutation on the interaction,Variant
1,disrupting interaction strength,R361C

# Variants of: B2
# Conditions: with ccnd1_human CCND1, P24385
# Sequence of ccnd1_human CCND1, P24385 (P24385 whole entry): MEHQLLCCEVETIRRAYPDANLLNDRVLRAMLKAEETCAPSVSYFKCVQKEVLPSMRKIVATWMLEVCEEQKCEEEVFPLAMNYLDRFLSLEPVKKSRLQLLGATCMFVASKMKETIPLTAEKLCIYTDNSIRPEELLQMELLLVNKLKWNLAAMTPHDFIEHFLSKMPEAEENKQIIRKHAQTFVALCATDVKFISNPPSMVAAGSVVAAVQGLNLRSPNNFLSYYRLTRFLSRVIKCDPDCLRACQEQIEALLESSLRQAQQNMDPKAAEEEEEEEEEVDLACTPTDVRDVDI
row,effect of a mutation on the interaction,Variant
1,with no effect,MATSRYEPVAEIGVGAYGTVYKAHDPHSGHFVALKSVRVPNGGGGGGGLPISTVREVALLRRLEAFEHPNVVRLMDVCATSRTDREIKVTLVFEHVDQDLRTYLDKAPPPGLPAETIKDLMRQFLRGLDFLHANCIVHRDLKPENILVTSGGTVKLADFGLARIYSYQMALTPVVVTLWYRAPEVLLQSTYATPVDMWSVGCIFAEMFRRKPLFCGNSEADQLGKIFDLIGLPPEDDWPRDVSLPRGAFPPRGPRPVQSVVPEMEESGAQLLLEMLTFNPHKRISAFRALQHSYLHKDEGNPE [R24H]
2,with no effect,MATSRYEPVAEIGVGAYGTVYKARDPHSGHFVALKSVRVPSGGGGGGGLPISTVREVALLRRLEAFEHPNVVRLMDVCATSRTDREIKVTLVFEHVDQDLRTYLDKAPPPGLPAETIKDLMRQFLRGLDFLHANCIVHRDLKPENILVTSGGTVKLADFGLARIYSYQMALTPVVVTLWYRAPEVLLQSTYATPVDMWSVGCIFAEMFRRKPLFCGNSEADQLGKIFDLIGLPPEDDWPRDVSLPRGAFPPRGPRPVQSVVPEMEESGAQLLLEMLTFNPHKRISAFRALQHSYLHKDEGNPE [N41S]
3,with no effect,MATSRYEPVAEIGVGAYGTVYKARDPHSGHFVALKSVRVPNGGGGGGGLPINTVREVALLRRLEAFEHPNVVRLMDVCATSRTDREIKVTLVFEHVDQDLRTYLDKAPPPGLPAETIKDLMRQFLRGLDFLHANCIVHRDLKPENILVTSGGTVKLADFGLARIYSYQMALTPVVVTLWYRAPEVLLQSTYATPVDMWSVGCIFAEMFRRKPLFCGNSEADQLGKIFDLIGLPPEDDWPRDVSLPRGAFPPRGPRPVQSVVPEMEESGAQLLLEMLTFNPHKRISAFRALQHSYLHKDEGNPE [S52N]

# Source: IntAct's records for PubMed 25502805
